# Changes are numbered by the printed parent chain.
# B1: Ame55 mutant, light chain 26G(C1) (antibody, V domains shown)
# VH: EVQLVQSGAEVKKPGESLKISCKGSGYSFTSYWIGWVRQMPGKGLEWMGIIYPGDSDTRYSPSFQGQVTISADKSISTAYLQWSSLKASDTAMYYCARGIIYPSNVAVWGQGTLVTVSS
# VL: SYELTQPPSVSVAPGQTARITCSGDGLGDKYASWYQQKPGQAPVLVIYEDSKRPSGIPERFSGSNSGNTATLTISGTQAEDEADYYCSVWDGDWGMPVFGGGTKLTVLG
# notes: Mutant of Ame55
# B2: Ame55 mutant, light chain 92S (antibody, V domains shown)
# VH: B1 VH
# VL: B1 VL with G26A, G92S
# notes: Mutant of Ame55
# B3: Ame55 mutant, light chain 93A (antibody, V domains shown)
# VH: B1 VH
# VL: B1 VL with G26A, D93A
# notes: Mutant of Ame55
# B4: Ame55 mutant, light chain 97A (antibody, V domains shown)
# VH: B1 VH
# VL: B1 VL with G26A, P97A
# notes: Mutant of Ame55
# B5: AmeA1C1 (the mutated light chain has Gly at site 26 and Ser at site 89) (antibody, V domains shown)
# VH: B1 VH
# VL: B1 VL with V89S
# notes: Mutant of Ame55; also called 26G + 89S
# B6: Ame55 mutant, light chain 29E (antibody, V domains shown)
# VH: B1 VH
# VL: B1 VL with G26A, D29E
# notes: Mutant of Ame55
# B7: Ame55 mutant, light chain 55P (antibody, V domains shown)
# VH: B1 VH
# VL: B1 VL with G26A, S55P
# notes: Mutant of Ame55
# B8: AmeA1C3 (the mutated light chain has Lys at site 26 and Ser at site 89) (antibody, V domains shown)
# VH: B1 VH
# VL: B1 VL with G26K, V89S
# notes: Mutant of Ame55; also called 26K + 89S
# B9: AmeA2 (Ame55 mutant, light chain 89A(A2)) (antibody, V domains shown)
# VH: B1 VH
# VL: B1 VL with G26A, V89A
# notes: Mutant of Ame55
# B10: Ame55 mutant, light chain 33Y (antibody, V domains shown)
# VH: B1 VH
# VL: B1 VL with G26A, S33Y
# notes: Mutant of Ame55
# B11: Ame55 mutant, light chain 95A (antibody, V domains shown)
# VH: B1 VH
# VL: B1 VL with G26A, G95A
# notes: Mutant of Ame55
# B12: Ame55 mutant, light chain 88N (antibody, V domains shown)
# VH: B1 VH
# VL: B1 VL with G26A, S88N
# notes: Mutant of Ame55
# B13: Ame55 mutant, light chain 88A (antibody, V domains shown)
# VH: B1 VH
# VL: B1 VL with G26A, S88A
# notes: Mutant of Ame55
# B14: Ame55 mutant, light chain 88L (antibody, V domains shown)
# VH: B1 VH
# VL: B1 VL with G26A, S88L
# notes: Mutant of Ame55
# B15: Ame55 mutant, light chain 91A (antibody, V domains shown)
# VH: B1 VH
# VL: B1 VL with G26A, D91A
# notes: Mutant of Ame55
# B16: Ame55 mutant, light chain 26K(C3) (antibody, V domains shown)
# VH: B1 VH
# VL: B1 VL with G26K
# notes: Mutant of Ame55
# B17: Ame55 mutant, light chain 89L (antibody, V domains shown)
# VH: B1 VH
# VL: B1 VL with G26A, V89L
# notes: Mutant of Ame55
# B18: Ame55 mutant, light chain 92A (antibody, V domains shown)
# VH: B1 VH
# VL: B1 VL with G26A, G92A
# notes: Mutant of Ame55
# B19: Ame55 mutant, light chain 94A (antibody, V domains shown)
# VH: B1 VH
# VL: B1 VL with G26A, W94A
# notes: Mutant of Ame55
# B20: Ame55 mutant, light chain 88Y (antibody, V domains shown)
# VH: B1 VH
# VL: B1 VL with G26A, S88Y
# notes: Mutant of Ame55
# B21: Ame55 mutant, light chain 96A (antibody, V domains shown)
# VH: B1 VH
# VL: B1 VL with G26A, M96A
# notes: Mutant of Ame55
# B22: Ame55 mutant, light chain 32V (antibody, V domains shown)
# VH: B1 VH
# VL: B1 VL with G26A, A32V
# notes: Mutant of Ame55
# B23: Ame55 mutant, light chain G28P (antibody, V domains shown)
# VH: B1 VH
# VL: B1 VL with G26A, G28P
# notes: Mutant of Ame55
# B24: Ame55 mutant, light chain 26N(C2) (antibody, V domains shown)
# VH: B1 VH
# VL: B1 VL with G26N
# notes: Mutant of Ame55
# B25: AmeA2C1 (the mutated light chain has Gly at site 26 and Ala at site 89) (antibody, V domains shown)
# VH: B1 VH
# VL: B1 VL with V89A
# notes: Mutant of Ame55; also called 26G + 89A
# B26: Ame55 mutant, light chain 32I (antibody, V domains shown)
# VH: B1 VH
# VL: B1 VL with G26A, A32I
# notes: Mutant of Ame55
# B27: Ame55 mutant, light chain 92P (antibody, V domains shown)
# VH: B1 VH
# VL: B1 VL with G26A, G92P
# notes: Mutant of Ame55
# B28: Ame55 mutant, light chain 88Q (antibody, V domains shown)
# VH: B1 VH
# VL: B1 VL with G26A, S88Q
# notes: Mutant of Ame55
# B29: Ame55 mutant, light chain 51G (antibody, V domains shown)
# VH: B1 VH
# VL: B1 VL with G26A, S51G
# notes: Mutant of Ame55
# B30: Ame55 mutant, light chain 88G (antibody, V domains shown)
# VH: B1 VH
# VL: B1 VL with G26A, S88G
# notes: Mutant of Ame55
# B31: AmeA2C3 (the mutated light chain has Lys at site 26 and Ala at site 89) (antibody, V domains shown)
# VH: B1 VH
# VL: B1 VL with G26K, V89A
# notes: Mutant of Ame55; also called 26K + 89A
# B32: Ame55 mutant, light chain 95S (antibody, V domains shown)
# VH: B1 VH
# VL: B1 VL with G26A, G95S
# notes: Mutant of Ame55
# B33: Ame55 mutant, light chain 90A (antibody, V domains shown)
# VH: B1 VH
# VL: B1 VL with G26A, W90A
# notes: Mutant of Ame55
# Molecular target: T1, EGFR-Fc fusion protein (recombinant EGFR extracellular region-Fc) (human, UniProt P00533 25-645)
# T1 construct: extracellular domain; not shown: Fc part supplied by vector pABG1
# Assay: BLI ForteBio QKe, biotinylated EGFR-Fc on streptavidin sensor, antibody 20 nM; fold reduction of affinity, parent Ame55 = 1;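 further: parent antibody affinity set as 1, with values giving the fold drop in affinity of each mutant antibody relative to that parent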
# Method: ForteBio software package was adopted to perform affinity analysis.
# Note: comparing mutant antibody with parent antibody, the affinity of the parent antibody is set to be 1, and the reduction fold of the affinity is calculated.
row,Affinity change [fold],Binder
1,0.5,B1
2,4,B2
3,> 10,B3
4,> 10,B4
5,< 0.3,B5
6,> 100,B6
7,2,B7
8,< 0.2,B8
9,0.25,B9
10,2,B10
11,> 10,B11
12,> 10,B12
13,> 10,B13
14,5,B14
15,> 10,B15
16,0.3,B16
17,5,B17

row,Affinity change [fold],Binder
1,2,B18
2,> 10,B19
3,5,B20
4,> 10,B21
5,2,B22
6,> 100,B23
7,1,B24
8,< 0.2,B25
9,1,B26
10,1,B27
11,2,B28
12,1,B29
13,3,B30
14,< 0.1,B31
15,> 10,B32
16,> 10,B33
